This passage reports IRF7/6D-induced IFN-β promoter luciferase activity in HEK293T; gD-EYFP and Viperin-Flag together against gD or viperin alone results from paper PMC6917645.

In this experiment the target is Viperin-Flag (UniProt Q8WXG1).
Sequence of UniProt Q8WXG1 (Q8WXG1 whole entry): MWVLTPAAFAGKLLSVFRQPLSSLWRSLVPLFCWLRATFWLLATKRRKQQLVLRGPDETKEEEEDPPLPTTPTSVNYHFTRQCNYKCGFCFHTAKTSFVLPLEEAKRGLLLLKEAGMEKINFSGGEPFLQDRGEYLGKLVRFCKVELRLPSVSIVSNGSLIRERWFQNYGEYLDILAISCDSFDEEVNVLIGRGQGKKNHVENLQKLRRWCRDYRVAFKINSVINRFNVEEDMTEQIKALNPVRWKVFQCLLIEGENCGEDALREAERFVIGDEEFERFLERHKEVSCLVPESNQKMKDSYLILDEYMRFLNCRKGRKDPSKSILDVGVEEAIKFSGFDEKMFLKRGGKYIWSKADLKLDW

“gD-EYFP (from UniProt Q69091 26-394) (natural protein)” yielded an IRF7/6D-induced IFN-β promoter luciferase activity in HEK293T; gD-EYFP and Viperin-Flag together against gD or viperin alone of 2 fold.
